US5831003A, “Peptides which bind to prothrombin and thrombin” (Bayer Corporation, priority 1996, dated 1998)
Several values for one entry are separate records, joined by “and”; a condition that tells them apart may be missing. Equal entries are not always repeated. Ends that are not written are not given here.

What was measured:
prothrombin = molecular target: T1, prothrombin (Homo sapiens, UniProt P00734); test: Purification of prothrombin from PTC eluate on QLWGSH-A-Totda-Toyopearl; format: binding; settings: SDS-PAGE and western blot; released with 1 M NaCl
T1 construct: from tissue
Protocol: Human pooled plasma was processed to PTC eluate by standard manufacturing procedures as indicated in Example 1. Approximately 1.0 ml of PTC eluate was injected onto the peptide resin QLWGSH-A-Totda-Toyopearl (FIG. 2 B). The column was washed with equilibration buffer containing 1.0 M NaCl and then containing 3.0 M NaCl. Acid treatment (2.5% acetic acid) was used to release protein from peptide resin.

thrombin = molecular target: T2, thrombin (Homo sapiens, UniProt P00734); test: Purification of α-thrombin from activated PTC eluate on QLWGSH-A-Totda-Toyopearl; format: binding; settings: SDS-PAGE and western blot
T2 construct: from tissue
Protocol: Human pooled plasma was processed to PTC eluate by standard manufacturing techniques. In brief, DEAE-Sephadex resin was added to post cryoprecipitate eluant and loosely bound protein was washed away with a low salt buffer. Higher concentrations of NaCl eluted the fraction called PTC eluate which contains prothrombin and the vitamin K-dependent coagulation protease zymogens (factors VII, IX, X, protein C and protein S). A sample of PTC eluate was activated in the presence of 25% (w/w) sodium citrate for 4 days at room temperature. Approximately 1.0 ml of activated PTC eluate was injected onto the peptide resin QLWGSH-A-Totda-Toyopearl (FIG. 2 A). The column was washed with equilibration buffer (10 mM HEPES, pH 6.8, 1.0 mM EGTA and 0.1% v/v Tween-20) containing 1.0 M NaCl and then washed further with equilibration buffer containing 3.0 M NaCl. Acid treatment (2.5% acetic acid) was used to release protein from the peptide resin.

α-thrombin = molecular target: T3, α-thrombin (Homo sapiens, UniProt P00734); test: Confirmatory binding assay in column chromatographic format, peptides synthesized on A-Totda-Toyopearl; settings: for Absorbance, 280 nm 2% Acetic Acid: integration of A280
T3 construct: α-Thrombin is the active form of the plasma serine protease zymogen, prothrombin; purchased Enzyme Research Labs (South Bend, Ind.)
Protocol: Confirmatory binding assays were performed in a column chromatographic format on a microbore HPLC using individual peptide sequences synthesized directly onto the Toyopearl 650 M Chelate resin which had been modified with Totda followed by an alanine residue (A-Totda-Toyopearl), at a final substitution density of 0.2 mmol/g resin. […] The endpoint was a dose-dependent increase in the acid eluate in the thrombin contactings, and quantification was by integration of the absorbance at 280 nm.

With “QLWGSH (not fully specified (C-terminus))” the “binding of prothrombin from unactivated PTC eluate (in words)” value (prothrombin) was “prothrombin bound the peptide”, the “binding and enrichment of thrombin from activated PTC eluate (in words)” value (thrombin) was “bound and enriched thrombin” and the “Absorbance, 280 nm 2% Acetic Acid” value (α-thrombin; 50 μg α-thrombin applied) was 1.54 and 1.39. For the same substance, the “Absorbance, 280 nm 2% Acetic Acid” value (α-thrombin; 100 μg α-thrombin applied) was 3.23 and 2.09, the “Absorbance, 280 nm 2% Acetic Acid” value (α-thrombin; 200 μg α-thrombin applied) was 6.92 and 3.71 and the “dose dependence of thrombin in the acid eluant (in words)” value (α-thrombin; 50, 100 and 200 μg α-thrombin) was “dose dependent increase”. For the same substance, the “binding of thrombin to peptide resin (in words)” value (α-thrombin; summary of Table 2) was “bound thrombin”.
